For orientation: Kd means the concentration at which binding is half-saturated. A lower Kd goes with higher affinity.

Holding throughout (test): ITC
A general note: In ITC the heat of successive injections is recorded.

The target of data set [1] is Jun bZIP K258A;Fos bZIP R144A (human;human, UniProt P05412;P01100 252-315;137-200, K258A|R144A).
The target of data set [2] is Jun bZIP K268A;Fos bZIP K153A (human;human, UniProt P05412;P01100 252-315;137-200, K268A|K153A).
Data set [3] deals with Jun bZIP R261A;Fos bZIP R158A (human;human, UniProt P05412;P01100 252-315;137-200, R261A|R158A).
In data set [4] the target is Jun bZIP R259A;Fos bZIP R155A (human;human, UniProt P05412;P01100 252-315;137-200, R259A|R155A).
Data set [5] addresses Jun bZIP R263A;Fos bZIP K148A (human;human, UniProt P05412;P01100 252-315;137-200, R263A|K148A).

Chain of Jun bZIP R259A;Fos bZIP R155A (P05412 252-315 R259A, chain 1 of 2): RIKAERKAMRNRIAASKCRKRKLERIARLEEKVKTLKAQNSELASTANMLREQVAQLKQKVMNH
Chain of Jun bZIP R259A;Fos bZIP R155A (P01100 137-200 R155A, chain 2 of 2): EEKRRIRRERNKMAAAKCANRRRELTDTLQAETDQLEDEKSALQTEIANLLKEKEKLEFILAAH
Chain of Jun bZIP R261A;Fos bZIP R158A (P05412 252-315 R261A, chain 1 of 2): as the sequence (P05412 252-315 R259A, chain 1 of 2) above, with A8R, R10A counted along it
Chain of Jun bZIP R261A;Fos bZIP R158A (P01100 137-200 R158A, chain 2 of 2): as the sequence (P01100 137-200 R155A, chain 2 of 2) above, with A19R, R22A counted along it
Chain of Jun bZIP R263A;Fos bZIP K148A (P05412 252-315 R263A, chain 1 of 2): as the sequence (P05412 252-315 R259A, chain 1 of 2) above, with A8R, R12A counted along it
Chain of Jun bZIP R263A;Fos bZIP K148A (P01100 137-200 K148A, chain 2 of 2): as the sequence (P01100 137-200 R155A, chain 2 of 2) above, with K12A, A19R counted along it
Chain of Jun bZIP K268A;Fos bZIP K153A (P05412 252-315 K268A, chain 1 of 2): as the sequence (P05412 252-315 R259A, chain 1 of 2) above, with A8R, K17A counted along it
Chain of Jun bZIP K268A;Fos bZIP K153A (P01100 137-200 K153A, chain 2 of 2): as the sequence (P01100 137-200 R155A, chain 2 of 2) above, with K17A, A19R counted along it
Chain of Jun bZIP K258A;Fos bZIP R144A (P05412 252-315 K258A, chain 1 of 2): as the sequence (P05412 252-315 R259A, chain 1 of 2) above, with K7A, A8R counted along it
Chain of Jun bZIP K258A;Fos bZIP R144A (P01100 137-200 R144A, chain 2 of 2): as the sequence (P01100 137-200 R155A, chain 2 of 2) above, with R8A, A19R counted along it

B1: TRE duplex 15-mer (dsDNA)
DNA 1: CGCGTGACTCACCCC
DNA 2: GGGGTGAGTCACGCG
For the molecule B1, the Kd in data set [1] came to 2.78 ± 0.05 µM; in data set [2] it was 0.47 ± 0.06 µM; in data set [3], 0.76 ± 0.02 µM; in data set [4], 5.75 ± 0.09 µM; in data set [5], 1.13 ± 0.01 µM.
